This note sets out measurements from US20070275916A1.

Test [1] deals with G-CSFR on mouse bone marrow cells (mouse) (UniProt P40223). The experiment in a line: radiolabeled G-CSF on bone marrow cells from vavCre+SOCS3-/fl mice, with and without excess unlabeled G-CSF.
For test [2] the target is unchanged. The experiment in a line: radiolabeled G-CSF on bone marrow cells from control vavCre-SOCS3+/fl mice, with and without excess unlabeled G-CSF.

UniProt P40223, sequence (P40223 26-837): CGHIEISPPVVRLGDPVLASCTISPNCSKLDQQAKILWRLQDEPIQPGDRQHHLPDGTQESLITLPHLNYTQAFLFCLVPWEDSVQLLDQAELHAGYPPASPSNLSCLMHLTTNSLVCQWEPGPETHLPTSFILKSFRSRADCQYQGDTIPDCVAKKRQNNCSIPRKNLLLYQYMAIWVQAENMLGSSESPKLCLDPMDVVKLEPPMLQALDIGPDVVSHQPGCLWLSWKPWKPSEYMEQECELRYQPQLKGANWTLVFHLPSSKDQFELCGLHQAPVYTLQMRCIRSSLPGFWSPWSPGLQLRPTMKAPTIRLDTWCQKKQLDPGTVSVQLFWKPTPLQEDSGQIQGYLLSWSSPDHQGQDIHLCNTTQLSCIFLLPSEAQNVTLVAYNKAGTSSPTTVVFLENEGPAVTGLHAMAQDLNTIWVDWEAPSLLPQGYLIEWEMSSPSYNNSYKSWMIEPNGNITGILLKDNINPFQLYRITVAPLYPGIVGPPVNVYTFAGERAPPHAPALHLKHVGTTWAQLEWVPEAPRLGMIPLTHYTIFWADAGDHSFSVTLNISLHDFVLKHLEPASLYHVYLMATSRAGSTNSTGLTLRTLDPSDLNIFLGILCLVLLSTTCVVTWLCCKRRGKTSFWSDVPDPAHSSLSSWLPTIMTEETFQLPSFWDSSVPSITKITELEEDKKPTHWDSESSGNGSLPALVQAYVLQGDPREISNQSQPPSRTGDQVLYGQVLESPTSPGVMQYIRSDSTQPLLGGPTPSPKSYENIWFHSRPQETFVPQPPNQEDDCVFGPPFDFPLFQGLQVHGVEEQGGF

With radiolabeled G-CSF (ligand), the cpm bound was 1700 cpm in test [1] and 1880 cpm in test [2].
